In data set [1] the target is T1, cdk4-cyclin D (Homo sapiens, UniProt P11802).
T1 construct: made in house; host or cells: Sf9 insect cells infected with baculovirus (separate crude lysates for cdk4 and cyclin D, mixed in the assay)
In words: pRb phosphorylation in vitro by Sf9 lysates containing cdk4 and cyclin D. The conditions noted are these: full length Rb protein. The arrangement: dose or concentration left out as unconfirmed. The class given is biochemical. On the procedure: Peptides were incubated at a concentration of […] in a buffer containing 50 mM Hepes pH 7.4, 10 mM MgCl2, 2.5 mM EGTA, 1 mM DTT, 10 mM β-glycerophosphate, 1 mM NaF and 1 mM Na3VO4 and […] of extract from Sf9 insect cells infected with human cdk4-expressing baculovirus lysed in 10 mM Hepes pH 7.4, 10 mM NaCl, 1 mM EDTA and 0.5 mM PMSF. The mixture was incubated for 60 minutes on ice. Human cyclin D containing Sf9 lysate ([…]) prepared as above was added together with 0.6 mg of purified recombinant full length Rb protein and 2.5 mM ^32P ATP in a final concentration of […] ATP and incubated for 10 minutes at +30° C., the reaction was terminated by addition of SDS loading buffer and loaded onto 8% SDS polyacrylamide gels. The gels were either exposed to autoradiographic film (FIG. 2A) or the levels of pRb phosphorylation were estimated by a Phosphoimager (FIG. 2B).

The target in data set [2] is T2, cdk6 (Homo sapiens, UniProt Q00534).
T2 construct: host or cells: coupled in vitro transcription/translation in rabbit reticulocyte lysate
T2 sequence (Q00534 whole entry): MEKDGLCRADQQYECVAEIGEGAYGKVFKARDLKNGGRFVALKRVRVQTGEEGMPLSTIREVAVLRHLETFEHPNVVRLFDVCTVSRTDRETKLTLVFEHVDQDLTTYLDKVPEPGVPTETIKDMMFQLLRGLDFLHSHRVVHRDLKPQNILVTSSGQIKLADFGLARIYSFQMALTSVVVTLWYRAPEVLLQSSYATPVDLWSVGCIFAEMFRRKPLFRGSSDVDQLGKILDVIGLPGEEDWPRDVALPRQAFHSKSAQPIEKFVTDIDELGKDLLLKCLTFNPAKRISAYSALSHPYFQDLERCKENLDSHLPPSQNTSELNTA
In words: Peptide precipitation of in vitro translated 35S-labelled cdk6 from reticulocyte lysate. In kind it is binding. Conditions: biotinylated peptide on streptavidin agarose beads, densitometry. On the procedure: (§1) A 20 aa peptide library with a 5 aa overlap of p16 (apart from the first 8 N-terminal residues) was synthesised adding a SGSG linker to the N-terminus to which a biotin group was coupled. The alanine substitution series of peptide 6 was synthesised in the same way. The peptides were coupled to streptavidin immobilised on agarose beads and washed 4 times in PBS before incubating for 1 hour on ice with rabbit reticulocyte lysate (Promega) containing ^35S-methionine labelled cdk4 or cdk6. The beads were washes 4 times in 1.2×PBS with 0.2% Triton X-100 before addition of SDS loading buffer and applied to 12% SDS polyacrylamide gels. The gels were exposed to an autoradiography film and the bands corresponding to cdk4 and cdk6 were analysed by densitometry.
(§2) To study the binding of peptides to cdk4 and cdk6 we expressed the proteins in a coupled in vitro reticulocyte translation system in the presence of ^35S labelled methionine. A biotin group coupled to a Ser-Gly-Ser-Gly-linker at the N-terminus of the peptides was coupled to streptavidin coated agarose beads and incubated with the cell lysates.

Data set [3] has as its target T3, cdk4 (Homo sapiens, UniProt P11802).
T3 construct: host or cells: coupled in vitro transcription/translation in rabbit reticulocyte lysate
In words: Peptide precipitation of in vitro translated 35S-labelled cdk4 from reticulocyte lysate. The class given is binding. The conditions noted are these: biotinylated peptide on streptavidin agarose beads, densitometry. On the procedure:
as §1, §2

The target of data set [4] is T1, cdk4-cyclin D. In words: pRb phosphorylation in vitro by Sf9 lysates containing cdk4 and cyclin D. The class given is biochemical. The conditions noted are these: for block of cdk4-cyclin D dependent pRb phosphorylation: 50 μM peptide, dilution series.
Data set [5] has as its target cdk4 (human, UniProt P11802 1-303). In words: cell-based or functional assay.
The test system of data set [6] is HaCaT cells. In words: Cell cycle inhibition: S-phase entry of serum-starved cells by BrdU incorporation. Conditions: 10 μM peptide concentration. In kind it is cell-based, human. Here is the method:
Cells were synchronised in G0 by serum starvation for 72 hours before serum and 10 μM BrdU were added. […] The data presented show % inhibition of cells entering S-phase after incubation with peptide 6 coupled to Penetratin in relation to cells incubated with serum only.
A cysteine residue was added to the C-terminus of peptide 6 and used for coupling to the 16 amino acids long Penetratin peptide (amino acid sequence RQIKIWFQNRRMKWKK)(SEQ ID NO:3) of the Antennapedia homeodomain (24) (Appligen) by means of a disulzhide bond. Cells were seeded on cover slips prior to starvation for 72 hours in DMEM medium without FCS. The medium was substituted by DMM containing 10% FCS and BrdU. The coupled peptides were added at different time points after serum stimulation. The number of cells entering S-phase was determined by estimating the numbers of cells incorporating BrdU at 24 hours by fixing the cells on cover slips in acetone/methanol (1:1), incubating in 1M HCl for 30 minutes, washing 6 times in PBS and then incubating with anti-BrdU monoclonal antibody and Texas Red conjugated secondary antibody and mounted in Mowiol containing Hoescht. At least six different areas on three different cover slips were counted for each single experiment which was repeated at least two times. The values presented in FIG. 3A show one representative experiment.
Background: Uptake of a labelled nucleoside into DNA is a usual measure of proliferation.

Data set [7] concerns the target peptide 1 of the p16 20 aa peptide library.
Data set [8] has as its target peptide 10 of the p16 20 aa peptide library.
Data set [9] addresses T4, peptide 6 (amino acids 84 to 103 of p16), biotinylated via N-terminal SGSG linker.
T4 chain: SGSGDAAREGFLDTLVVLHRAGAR

For data set [10], the target named is T5, peptide 6 with aspartic acid 92 substituted by alanine.
T5 chain: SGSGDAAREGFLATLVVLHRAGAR

For data set [11], the target named is T6, peptide 6 with residue 94 substituted by alanine.
T6 chain: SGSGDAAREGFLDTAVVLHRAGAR

For the molecule “AREGFLDTLVVLHRAGAR (SGSGAREGFLDTLVVLHRAGAR) [peptide 6 in FIGS. 5A-C, deletion series peptide, 2 residues removed at the N-terminus of the p16 84-103 peptide]”, in data set [1], the “inhibition of pRb phosphorylation” value is on record as “severely reduced”. Moreover, in [2], the “relative binding to in vitro expressed cdk6” value is given as “severely reduced”. In addition, the “relative binding to in vitro expressed cdk4” value in data set [3] is “severely reduced”.
As for “Ala92: peptide 6 in which aspartic acid 92 is substituted by alanine (SGSGDAAREGFLATLVVLHRAGAR)”, the “block of cdk4-cyclin D dependent pRb phosphorylation” value in [4] (listed as Ala92 peptide) is on record as “almost completely blocked”; in data set [4] (listed as Ala-92), “nearly complete”. In [1], the “inhibition of pRb phosphorylation” value is “even more efficiently than the wild type peptide 6”. In addition, in [2], the “relative binding to in vitro expressed cdk6” value is recorded as “more potent binding”. Moreover, the “relative binding to in vitro expressed cdk4” value in data set [3] is listed as “more potent binding”.
For “Ala94: peptide 6 with the single alanine substitution at residue 94 (SGSGDAAREGFLDTAVVLHRAGAR)”, the “block of cdk4-cyclin D dependent pRb phosphorylation” value in [4] is “completely inactivates the function of peptide 6”.
Consider “DAAPEGFLDTLVVLHRAGAR [R87P, p16 84-103 peptide with the R87P substitution]”, for which the “inhibition of pRb phosphorylation” value in [1] is “does not hamper the function of the peptide”.
“DAARAGFLDTLQTLLEFQAD (SGSGDAARAGFLDTLQTLLEFQAD) [p18 peptide, peptide derived from p18 corresponding to the 84-103 region of p16]”: in data set [1], the “inhibition of pRb phosphorylation” value is “inhibit pRb phosphorylation”. Also, the “relative binding to in vitro expressed cdk6” value in data set [2] was “binds”. In data set [3], the “relative binding to in vitro expressed cdk4” value is given as “binds”.
Consider “DAAREGFLDTLVVLHGSGAR (SGSGDAAREGFLDTLVVLHGSGAR) [mouse p16 peptide, peptide derived from mouse p16 corresponding to the 84-103 region of p16]”, for which the “inhibition of pRb phosphorylation” value in data set [1] is listed as “inhibit pRb phosphorylation”. Further, the “relative binding to in vitro expressed cdk6” value in data set [2] is “binds”. Also, the “relative binding to in vitro expressed cdk4” value in data set [3] was “binds”.
For the molecule “EGFLDTLVVLHRAGAR [peptide 7, 16 aa peptide of the p16 deletion series]”, the “inhibition of pRb phosphorylation” value in data set [1] is recorded as “able to exert a biological effect which is the same or analogous to that of full length p16”.
On the same count and under the same terms, for “FLDTLVVLHRAG [peptide 9, 12 aa peptide of the p16 deletion series]” the value was “able to exert a biological effect which is the same or analogous to that of full length p16”.
“FLDTLVVLHRAGAR [peptide 8, 14 aa peptide of the p16 deletion series]”: in [1], the “inhibition of pRb phosphorylation” value was “able to exert a biological effect which is the same or analogous to that of full length p16”.
For the molecule “His-tagged p16 protein with the VV.95,96AA mutations (from UniProt P42771 1-156)”, in data set [5], the 50% kinase inhibitory concentration, fold increase against wild type His-tagged p16 turned out to be 5 fold.
With “peptide 21: 36aa synthetic peptide (Penetratin sequence plus 20aa p16 peptide) that carries the VV.95,96AA mutation (RQIKIWFQNRRMKWKKDAAREGFLDTLAALHRAGAR)”, in data set [4] (36aa Penetratin-linked peptides, increasing concentrations (FIG. 6A)), the “inhibition of cdk-cyclin D kinase activity” value was “less active”. The results for the “block of S-phase entry” value in [6] and in data set [6] (listed as pep21) were “significantly less active in vivo” and “only marginal effect”, respectively.
As to RQIKIWFQNRRMKWKKDAAREGFLDTLAALHRAGAR [peptide 21 (36 aa synthetic peptide, Penetratin-p16 peptide carrying the VV.95,96AA mutation)], in data set [5], the “50% kinase inhibitory concentration, fold increase” value is roughly 5 fold.

B1: cdk4 (protein)
chain: MATSRYEPVAEIGVGAYGTVYKARDPHSGHFVALKSVRVPNGGGGGGGLPISTVREVALLRRLEAFEHPNVVRLMDVCATSRTDREIKVTLVFEHVDQDLRTYLDKAPPPGLPAETIKDLMRQFLRGLDFLHANCIVHRDLKPENILVTSGGTVKLADFGLARIYSYQMALTPVVVTLWYRAPEVLLQSTYATPVDMWSVGCIFAEMFRRKPLFCGNSEADQLGKIFDLIGLPPEDDWPRDVSLPRGAFPPRGPRPVQSVVPEMEESGAQLLLEMLTFNPHKRISAFRALQHSYLHKDEGNPE
Take B1: the pRb phosphorylation entry in [7] and in [8] was “do not affect pRb phosphorylation” throughout. In addition, in data set [9], the “level of pRb phosphorylation by Sf9 lysates containing cdk4 and cyclin D” value was “significantly reduces the level of pRb phosphorylation”. Further, in data set [10], the “phosphorylation of the full length Rb protein by Sf9 lysates containing cdk4 and cyclin D” value is “inhibits phosphorylation of the full length Rb protein even more efficiently than the wild type peptide 6”. Besides, the “pRb phosphorylation (dilution series)” value in data set [11] is “the single substitution Ala94 completely inactivates the function of peptide 6 in this assay”.

Values taken from patent US6569833B1, “Cyclin dependent kinase binding peptides” (Cyclacel Limited, priority 1995, dated 2003).
